Earlier results on one substance are cited in paper PMC3792554.

This data set deals with IL-18 (Homo sapiens) (UniProt Q14116).
IL-18 (Homo sapiens), sequence (Q14116 37-193): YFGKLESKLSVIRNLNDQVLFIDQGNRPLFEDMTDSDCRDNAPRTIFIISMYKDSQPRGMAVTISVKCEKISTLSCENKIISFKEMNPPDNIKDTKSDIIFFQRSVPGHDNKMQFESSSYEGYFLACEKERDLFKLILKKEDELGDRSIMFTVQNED

IL-18BP, sequence (O95998 31-194): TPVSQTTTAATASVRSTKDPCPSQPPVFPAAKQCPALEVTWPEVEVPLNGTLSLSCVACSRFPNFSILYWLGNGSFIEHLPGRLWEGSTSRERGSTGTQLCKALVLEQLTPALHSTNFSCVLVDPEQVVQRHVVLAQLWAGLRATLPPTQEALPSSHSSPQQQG

One may read the Kd as the concentration at which binding is half-saturated. As for IL-18BP (from UniProt O95998), the Kd was 0.4 nM.
